In patent US20080058278A1, “ATTENUATION OF HYPEROXIA-INDUCED CELL DEATH WITH MITOCHONDRIAL ALDEHYDE DEHYDROGENASE” (THE CHILDREN'S MERCY HOSPITAL, priority 2006, published 2008):

B1: mtALDH: human mitochondrial aldehyde dehydrogenase (SEQ ID NO. 3) overexpressed as V5 fusion protein in A549 cells by pcDNA3.1 plasmid transfection (protein, listed as Homo sapiens)
chain: MLRAAARFGPRLGRRLLSAAATQAVPAPNQQPEVFCNQIFINNEWHDAVSRKTFPTVNPSTGEVICQVAEGDKEDVDKAVKAARAAFQLGSPWRRMDASHRGRLLNRLADLIERDRTYLAALETLDNGKPYVISYLVDLDMVLKCLRYYAGWADKYHGKTIPIDGDFFSYTRHEPVGVCGQIIPWNFPLLMQAWKLGPALATGNVVVMKVAEQTPLTALYVANLIKEAGFPPGVVNIVPGFGPTAGAAIASHEDVDKVAFTGSTEIGRVIQVAAGSSNLKRVTLELGGKSPNIIMSDADMDWAVEQAHFALFFNQGQCCCAGSRTFVQEDIYDEFVERSVARAKSRVVGNPFDSKTEQGPQVDETQFKKILGYINTGKQEGAKLLCGGGIAADRGYFIQPTVFGDVQDGMTIAKEEIFGPVMQILKFKTIEEVVGRANNSTYGLAAAVFTKDLDKANYLSQALQAGTVWVNCYDVFGAQSPFGGYKMSGSGRELGEYGLQAYTEVKTVTVKVPQKNS
modifications: V5 tag

Key:
Neo-A549 cells [1] = experiment: Necrotic cell death, trypan blue exclusion assay; type: cell-based, human; details: 10 μM inhibitor pretreatment 30 minutes
From the text: (§1) The cultured media were collected and saved.

mtALDH-A549 cells [2] = experiment: Necrotic cell death, trypan blue exclusion assay; type: cell-based, human; details: for necrotic cell death (percentage of stained cells to total cells): mtALDH-A549 cells, 10 μM inhibitor pretreatment 30 minutes; for necrotic cell death, trypan blue exclusion: mtALDH overexpression (mtALDH-A549)
From the text: (§2) Plasmid Construction and Transfection: For human mt ALDH plasmid construction, full-length human mtALDH cDNA without stop codon was amplified from a human lung cDNA library (Clontech, Mountain View Calif.) by RT-PCR using following primers, sense: […] (SEQ ID NO. 1), antisense: […] (SEQ ID NO. 2). The resulting human mtALDH cDNA was subcloned into the plasmid vector pcDNA3.1 (Invitrogen, Carlsbad, Calif.). The mtALDH sequence (SEQ ID NO. 3) was confirmed by direct nucleotide sequencing. mtALDH-pcDNA3 and empty pcDNA3.1 plasmids were transfected into A549 cells using LipofectAMINE (Invitrogen, Carlsbad, Calif.). The transfected cells were then selected by G418 sulfate at 500 μg/mL for ten days. A single clone was selected by limited dilution and mtALDH protein expression was confirmed by Western blotting with anti-V5 antibody (Invitrogen, Carlsbad, Calif.).
as §1

mtALDH-A549 cells [3] = type: cell-based; details: 10 μM inhibitor pretreatment 30 minutes, 48-hour hyperoxic exposure (95% O2, 5% CO2)
From the text: as §2, §1

Neo-A549 cells [4] = details: 10 μM inhibitor pretreatment 30 minutes, 48-hour hyperoxic exposure (95% O2, 5% CO2)
Protocol: Cell culture and Cell Treatment: A549 cells were purchased from American Type culture collection (ATCC, Manassas, Va.) and grown in Dulbecco's Modified Eagle Medium (DMEM) containing 10% fetal bovine serum, 50 μg/mL penicillin and 50 μg/mL streptomycin in 5% CO2 at 37° C. Normoxic exposure of the cells was conducted under room air and 5% CO2 in a humidified cell culture incubator at 37° C. Hyperoxic exposure of the cells was conducted in a humidified chamber (Billups and Rothenberg, Del Mar, Calif.) and the chamber was flushed with 95% O2, 5% CO2 (hyperoxia) at a flow rate of 10 liters per minute for 15 minutes prior to incubation at 37° c. In U0126 and LY294002 pretreatment experiments, cells were treated with or without 10 μM U0216 or LY294002 (two well-known inhibitors) for 30 minutes prior to normoxic or hyperoxic exposure.
The lactate dehydrogenase (LDH) assay kit was from Biovision (Mountain View, Calif.) and LDH activity was measured per manufacture's instruction. Briefly, cells were incubated in an incubator (5% CO2, 37° C.) for the appropriate time of treatment. The cultured media were collected and saved. […] The absorbance of all samples at 490 nm was measured using a microplate reader. The cytotoxicity was determined by the percentage of LDH activity in cultured medium over combined LDH activities of the cultured medium and cell lysate.

mtALDH-A549 cells [5] = experiment: Apoptotic cell death, Annexin V staining and flow cytometry; type: cell-based, human; details: mtALDH overexpression (mtALDH-A549), 48-hour hyperoxic treatment; Neo-A549 0.84%
Protocol: Analysis of Apoptotic Cells: The Apoptosis Detection kit was from R&D System (Minneapolis, Minn.). Treated cells were trypsinized and collected by centrifugation at 500×g for 5 minutes. Cells were washed with cold PBS once and resuspended in 100 uL binding buffer containing 10 mM HEPES pH 7.4, 150 mM NaCl, 5 mM KCl, 1 mM MgCl2 and 1.8 mM CaCl2. Cells were stained with Annexin V-FITC (0.05 μg per sample) for 15 minutes according to manufacturer's instructions. The stained cells were then subjected to flow cytometry analysis.

mtALDH-A549 cells [6] = experiment: Intracellular and mitochondrial ROS levels by flow cytometry; type: cell-based, human
Protocol: Assessment of Intracellular and Mitochondrial ROS Levels: After normoxic or hyperoxic treatment, cultured cells were stained with 10 μM of 2′,7′-dicholordihydrofluorescein diacetate, succinimidyl ester (OxyBURST® Green H2DCFDA (2′,7′-dichlorodihydrofluorescin diacetate)), SE, Molecular Probe, Oreg.) for 10 minutes. The stained cells were washed three times with PBS and then trypsinized with 0.025% trypsin and 0.05% EDTA. The resuspended cells were subjected to fluorescent intensity measured by flow cytometry. For mitochondria-derived ROS measurement, cells were incubated with 10 μM dihydrorhodamaine 123 (Molecular Probe, OR) for 15 minutes. The stained cells were washed three times with PBS and then trypsinized with 0.25% trypsin, 0.05% EDTA. The resuspended cells were subjected to rhodamine 123 fluorescent intensity measurement by flow cytometry. Statistical Analysis: The results are expressed as the mean±SEM of data obtained from two or more experiments; or where appropriate, as mean±SD. Statistical analysis was performed using the student t test for paired comparisons and ANOVA for multiple comparisons. A value of p<0.05 was considered significant.

ERK = ERK phosphorylation, Western blotting; type: cell-based, human; details: 48-hour normoxic conditions, normalized by total ERK
Protocol: Western Blotting Analysis: Antibodies were purchased from Cell Signaling Technology (Beverly, Mass.) and they were used according to manufacturer's instructions. Cultured cells after treatment were washed with cold PBS three times, and the 300 μl of sample lysis buffer (62.5 mM Tris-HCl pH 6.8, 2% w/v SDS, 10% glycerol, 200 mM dithiothreitol, and protease cocktails) was added to each plate. Cell lysates were centrifuged at 12,000×g for 10 minutes. The supernatants were saved for analysis. Protein concentration was determined by bicinchoninic acid (BCA) protein assay kit (Sigma, St. Louis, Mo.). Samples containing 50 μg of protein in loading sample buffer were boiled for 5 minutes and loaded on 12% Tris-Glycine SDS-PAGE gels. Gels were run at 120 V for approximately two hours and transferred overnight at 20 V to nitrocellulose membranes. Membranes were incubated with the blocking buffer containing 5% non-fat mile in PBST (0.1% Tween-20 in PBS) for one hour, washed with PBST and incubated overnight with the primary antibody against either phosphorylated ERK or phosphorylated Akt (Ser473). […] Phosphorylated ERK and phosphorylated Akt protein band intensities on autoradiogram were analyzed with Image-Quant (Molecular Dynamics, Sunnyvale, Calif.) and normalized by nonphosphorylated ERK, nonphosphorylated Akt or β-actin in the same sample, respectively.

Akt = Akt phosphorylation and total Akt, Western blotting; type: cell-based, human
Protocol: Western Blotting Analysis: Antibodies were purchased from Cell Signaling Technology (Beverly, Mass.) and they were used according to manufacturer's instructions. Cultured cells after treatment were washed with cold PBS three times, and the 300 μl of sample lysis buffer (62.5 mM Tris-HCl pH 6.8, 2% w/v SDS, 10% glycerol, 200 mM dithiothreitol, and protease cocktails) was added to each plate. Cell lysates were centrifuged at 12,000×g for 10 minutes. The supernatants were saved for analysis. Protein concentration was determined by bicinchoninic acid (BCA) protein assay kit (Sigma, St. Louis, Mo.). Samples containing 50 μg of protein in loading sample buffer were boiled for 5 minutes and loaded on 12% Tris-Glycine SDS-PAGE gels. Gels were run at 120 V for approximately two hours and transferred overnight at 20 V to nitrocellulose membranes. Membranes were incubated with the blocking buffer containing 5% non-fat mile in PBST (0.1% Tween-20 in PBS) for one hour, washed with PBST and incubated overnight with the primary antibody against either phosphorylated ERK or phosphorylated Akt (Ser473). The membranes were washed in PBST and proteins were visualized using horseradish peroxidase (HRP)-conjugated anti-rabbit IgG and the enhanced chemiluminescence (Amersham Bioscience, Piscataway, N.J.). The membranes were stripped using a standard stripping solution (62.5 mM Tris-HCl, pH 6.8, 2% SDS and 100 mM β-mercaptoethanol) at 50° C., and reprobed with nonphosphorylated ERK, nonphosphorylated Akt and β-actin antibodies. Phosphorylated ERK and phosphorylated Akt protein band intensities on autoradiogram were analyzed with Image-Quant (Molecular Dynamics, Sunnyvale, Calif.) and normalized by nonphosphorylated ERK, nonphosphorylated Akt or β-actin in the same sample, respectively.

mtALDH = target: T1, mtALDH (Homo sapiens, UniProt P05091); experiment: mtALDH activity assay (NADH formation at 340 nm); type: cell-based; details: cell homogenate supernatant, p<0.01, n=6
T1 construct: endogenous in cells; host or cells: A549 human lung type II epithelial cells (isolated mitochondrial protein or cell homogenate supernatant)
T1 sequence (P05091 18-517): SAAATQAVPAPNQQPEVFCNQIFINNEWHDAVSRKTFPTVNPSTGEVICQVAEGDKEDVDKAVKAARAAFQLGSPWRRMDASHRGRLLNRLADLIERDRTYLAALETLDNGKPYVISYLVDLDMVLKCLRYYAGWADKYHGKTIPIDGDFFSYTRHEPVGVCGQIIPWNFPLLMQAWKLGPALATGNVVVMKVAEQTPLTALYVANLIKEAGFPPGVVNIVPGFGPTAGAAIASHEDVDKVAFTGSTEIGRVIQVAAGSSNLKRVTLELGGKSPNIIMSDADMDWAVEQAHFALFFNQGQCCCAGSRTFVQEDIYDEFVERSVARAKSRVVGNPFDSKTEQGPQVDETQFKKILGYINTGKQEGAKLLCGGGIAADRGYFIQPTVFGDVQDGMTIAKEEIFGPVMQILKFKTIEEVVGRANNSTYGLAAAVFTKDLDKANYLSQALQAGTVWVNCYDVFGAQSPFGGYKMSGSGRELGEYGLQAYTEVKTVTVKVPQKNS
Protocol: mtALDH Activity Assay: mtALDH activity was measured as described previously (9). Neo-A549 and mtALDH A549 cells cultured on plates were collected in buffer of 50 mM Tris-HCl, pH 8.5. Resuspended cells were sonicated at setting 4 for 5 seconds by VirSonic sonicator from VirTis (Gardiner, N.Y.). The cell homogenates were centrifuged at 12,000×g for 10 minutes. The supernatants were saved and protein concentration was determined. Mitochondria were isolated from cultured cells using a mitochondria isolation kit from Pierce (Rockford, Ill.). The enzyme activity assay was carried out in 100 μL of 50 mM Tris-HCl, pH 8.5 containing 50 μg prepared protein, 15 μM propionaldehyde, 1 mM NAD and 1 mM 4-methylpyrazole. The ALDH activity was determined by spectrometer for NADH formation at 340 nm.

[7] = 48-hour hyperoxic exposure (95% O2, 5% CO2)

Molecule	necrotic cell death (percentage of stained cells to total cells) (Neo-A549 cells [1]; [7]) [%]	necrotic cell death (percentage of stained cells to total cells) (Neo-A549 cells [1]; 48-hour normoxic exposure) [%]	necrotic cell death (percentage of stained cells to total cells) (mtALDH-A549 cells [2]; [7]) [%]	necrotic cell death (percentage of stained cells to total cells) (mtALDH-A549 cells [2]; 48-hour normoxic exposure) [%]	necrotic cell death (LDH cytotoxicity) (mtALDH-A549 cells [3]) [%]	necrotic cell death (LDH cytotoxicity) (Neo-A549 cells [4]) [%]	necrotic cell death, trypan blue exclusion (mtALDH-A549 cells [2]; 24-hour hyperoxic exposure, Neo-A549 25.3%) [%]	necrotic cell death, trypan blue exclusion (mtALDH-A549 cells [2]; 48-hour hyperoxic exposure, Neo-A549 50.5%) [%]	necrotic cell death, trypan blue exclusion (mtALDH-A549 cells [2]; 72-hour hyperoxic exposure, Neo-A549 52.4%) [%]	apoptotic cell death (Annexin V positive cells) (mtALDH-A549 cells [5]) [%]	intracellular ROS level (H2DCFDA staining) (mtALDH-A549 cells [6]; 24-hour hyperoxia)	intracellular ROS level versus Neo-A549 cells (mtALDH-A549 cells [6]; 24-hour hyperoxia, p<0.001)	mitochondrial ROS level (dihydrorhodamine 123) versus Neo-A549 cells (mtALDH-A549 cells [6]; 24-hour hyperoxic exposure, p<0.001)	ERK phosphorylation in mtALDH-A549 cells compared to Neo-A549 cells (ERK)	Akt phosphorylation in mtALDH-A549 cells versus Neo-A549 cells (Akt; 0, 24 and 48-hour hyperoxic exposure)	phosphorylated Akt level in mtALDH-A549 cells versus Neo-A549 cells (Akt; first 24-hour culture under normoxic conditions)	total Akt in mtALDH-A549 cells compared to Neo-A549 cells (Akt; prior to hyperoxic treatment (0 hour))	total mtALDH activity in mtALDH-A549 cells compared to Neo-A549 cells (mtALDH)
O=c1cc(N2CCOCC2)oc2c(-c3ccccc3)cccc12 [LY294002]	86.6	9.0	28.0	4.3	–	–	–	–	–	–	–	–	–	–	–	–	–	–
N#CC(=C(/N)Sc1ccccc1N)/C(C#N)=C(\N)Sc1ccccc1N [U0126]	44.5	12.6	26.0	11.6	9.4	14.1	–	–	–	–	–	–	–	–	–	–	–	–
B1	–	–	–	–	–	–	6.5	9.1	15.1	0.48	increased only approximately two fold	significantly decreased	significantly decreased	seven-fold increase	2-3 times	two-fold higher	about 1.8 fold	increased more than two fold
